From article PMC9769804

Tested on: SaraC (Stereum hirsutum FP-91666)
Assay: SPR
Settings: S-adenosylmethionine (16 mM, protein pre-incubation), SPR Biacore T200, CM5 anti-His capture, 1x PBS with 5% DMSO pH 7.5 (protein/SAM mix), oligos in 1x PBS, 25 C, 5 uL/min, analyte 0.25-4 uM (Fig. 1 legend …)

Q: GATTCCTTC [Oligo7291] was tested. Which Kd (5mC at position 5) did it give?
A: Its Kd is 662 nM.

Q: How did the Kd (two methyl groups, printed mG at positions 7 and 12, text calls these oligos 5mC or 6mA, so methylated base is ambiguous) turn out when CGATCGGATTTGACGGTT [Oligo5564] was run?
A: The Kd was 821 nM.

Q: With ATCCAGAGCGAGCCTATTACG [Oligo1309] as the sequence, how does the Kd (called weak, 6mA at positions 7 and 11) read?
A: Its Kd is 1670 nM.
